Measurements taken from the supplement of paper PMC10567573.

B1: RBBP5 (parent)
chain: TGTSNTTAIKSIEFARKGSCFLIN
B2: APBB1IP (parent)
chain: FNYSVGFKDLNESLNALEDQDLDA

Variants of: B1
Test: protein stability index of a GFP-peptide fusion (GPS, HEK-293T) (PSI 1-6); higher = more stable
Settings: c terminus: a fixed tail appended
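Note: lentivirally expressed fusions sorted by FACS into six bins by GFP to DsRed ratio, PSI derived from sequencing read proportions per bin multiplied by bin number.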

Variant	protein stability index
N24S	2.04
N24K	2.02
N24M	2.16
N24W	2.71
I9R	2.34
I9P	2.61
I9D	2.86
I9Q	2.62
G2H	2.03
G2Y	3.22
T3M	2.2
T3Q	2.11
T3H	2.52
S19D	3.72
S19E	2.33
S19T	1.79
S19I	2.75
S19F	1.61
S19R	2.24
I23H	2.79
I23P	2.82
I23A	2.67

Variant	protein stability index
I23K	3.62
I23F	1.98
A8Q	2.21
A8E	2.71
C20A	2.6
E13P	1.75
E13Y	2.6
E13L	2.38
E13G	2.11
E13C	1.97
F21L	2.07
F21M	3.52
F21I	2.37
F21H	2.86
L22C	2.79
L22T	3.09
L22I	2.55
L22P	3.53
L22E	3.31
L22W	1.71
T1S	2.2
R16P	2.34

Variant	protein stability index
R16N	3.21
R16T	2.26
R16V	1.99
R16I	3.29
R16S	2.44
S4L	2.17
S4P	2.01
S4G	2.17
S4F	1.97
S4I	2.52
T7C	1.26
T7S	2.4
A15M	1.94
A15H	2.39
A15R	2.22
G18D	2.89
K10G	2.19
K10V	1.93
K10S	2.93
K10F	2.9
K10R	2.29
K10P	2.38

Variant	protein stability index
K10D	2.08
K10Q	2.82
T6W	1.74
T6A	2.87
T6M	2.04
T6R	1.55
T6P	2.29
T6Y	1.87
N5K	2.15
N5G	2.12
N5L	1.9
N5I	1.95
S11W	2.77
S11N	2.92
S11G	2.12
S11I	3.31
F14G	2.76
F14V	2.86
I12A	2.94
I12K	2.23
K17P	2.3
K17G	2.24

Variants of: B2
Test: as above
Settings: c terminus: a fixed tail appended

Variant	protein stability index
L22H	4.96
L22Q	4.67
L22K	4.86
L22Y	4.37
L22T	4.82
L22D	4.68
L22P	4.92
L22R	4.5
L22W	3.86
L22S	4.76
L22G	5.28
L22M	4.72
L22F	4.49
L22I	4.74
L22E	5.45
L22N	4.79
L22C	4.62
L22A	5.06
L22V	4.6
A24Y	3.55
A24Q	4.72
A24R	3.83
A24G	3.68
A24S	4.59
A24P	4.42
A24E	4.91
A24D	4.68

Variant	protein stability index
A24V	4.5
A24L	4.09
A24F	3.85
A24I	4.07
A24T	4.45
A24C	4.24
A24W	3.77
A24N	4.5
A24H	4.52
A24M	3.85
A24K	4.81
Q20Y	3.85
Q20V	4
Q20W	3.7
D23A	3.79
D23V	3.18
D23R	3.81
D23Y	2.57
D23H	3.69
D23N	4.31
D23E	4.22
D23I	3.56
D23S	4.02
D23M	2.86
D23C	3.33
D23G	4.41
D23Q	4.22

Variant	protein stability index
D23L	3.14
D23T	3.85
D23W	1.81
D23K	3.87
D23P	4.38
D23F	2.44
D21Q	3.75
D21F	2.34
D21A	3.69
D21K	4.19
D21R	3
D21S	4.33
D21N	4.07
D21P	3.77
D21Y	2.38
D21L	2.8
D21V	3.38
D21M	3.83
D21C	3.57
D21G	3.94
D21H	3.33
D21I	2.81
D21W	2.43
D21T	4.14
D21E	4.25
